Assay results reported in patent US20190382483A1.

Assays:
[1] = biological target: Recombinant hSIRPg-His (Sino Biologicals, reference 11828-H08H) (human) (UniProt Q9P1W8); assay: Blitz (BLI); no antibody; conditions: Fc fusion
[2] = biological target: Recombinant hSIRPg-His (Sino Biologicals, reference 11828-H08H) (human) (UniProt Q9P1W8); assay: Blitz (BLI); SIRPg pre-incubated with Kwar23; conditions: Fc fusion
[3] = biological target: Recombinant hSIRPg-His (Sino Biologicals, reference 11828-H08H) (human) (UniProt Q9P1W8); assay: Blitz (BLI); SIRPg pre-incubated with SIRP29; conditions: Fc fusion
[4] = biological target: hSIRPa-His recombinant protein (Sino Biologicals, reference 11612-H08H) (human) (UniProt P78324); assay: Biacore (SPR)
Sequence of hSIRPa-His recombinant protein (Sino Biologicals, reference 11612-H08H) (human) (P78324 31-370): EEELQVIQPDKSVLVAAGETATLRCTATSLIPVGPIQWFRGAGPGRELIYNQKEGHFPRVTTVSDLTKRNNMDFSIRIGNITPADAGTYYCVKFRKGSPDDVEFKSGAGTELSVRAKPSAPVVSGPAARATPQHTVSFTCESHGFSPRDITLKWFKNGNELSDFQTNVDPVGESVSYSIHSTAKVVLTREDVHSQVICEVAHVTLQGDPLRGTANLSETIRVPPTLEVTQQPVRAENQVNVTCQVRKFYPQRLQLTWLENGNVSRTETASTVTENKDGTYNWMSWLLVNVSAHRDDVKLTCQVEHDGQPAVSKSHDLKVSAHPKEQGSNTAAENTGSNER

Sequence of human CD47Fc (Sino Biologicals, reference 12283-H02H) (Q08722 19-139): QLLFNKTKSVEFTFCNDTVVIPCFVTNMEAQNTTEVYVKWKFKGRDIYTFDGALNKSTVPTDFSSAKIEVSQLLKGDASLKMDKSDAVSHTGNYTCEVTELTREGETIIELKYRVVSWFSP
Sequence of Recombinant hSIRPg-His (Sino Biologicals, reference 11828-H08H) (human) (Q9P1W8 29-360): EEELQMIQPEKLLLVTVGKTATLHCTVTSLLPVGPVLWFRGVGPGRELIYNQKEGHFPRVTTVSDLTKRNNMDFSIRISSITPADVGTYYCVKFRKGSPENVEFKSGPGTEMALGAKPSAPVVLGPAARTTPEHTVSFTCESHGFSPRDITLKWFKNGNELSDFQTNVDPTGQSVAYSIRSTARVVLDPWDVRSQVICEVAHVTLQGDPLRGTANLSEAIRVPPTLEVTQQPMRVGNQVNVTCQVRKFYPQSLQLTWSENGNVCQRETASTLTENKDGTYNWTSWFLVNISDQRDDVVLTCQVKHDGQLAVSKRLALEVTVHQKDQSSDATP

Kd [1]	Kd [2]	Kd [3]	Kd [4]	Substance
597 nM	288000 nM	2570 nM		human CD47Fc (Sino Biologicals, reference 12283-H02H) (from UniProt Q08722 19-139)
			0.367 nM	Kwar23
